The target in experiment [1] is GST-tagged Imp α5 ΔIBB (human) (UniProt P52294). As to the kind of experiment: BLI (Octet RED96), biotinylated N50 on SA biosensors, GST-tagged Imp α5 ΔIBB at 50-200 nM, 2:1 model; column Imp α5 Major.
Experiment [2] shares this target. Kind of experiment: BLI (Octet RED96), biotinylated N50 on SA biosensors, GST-tagged Imp α5 ΔIBB at 50-200 nM, 2:1 model; column Imp α5 Minor.
The target is the same in experiment [3]. Kind of experiment: BLI, biotinylated N50 on SA biosensors; reference is GST-tagged Imp α1 ΔIBB.
The target in experiment [4] is T1, Endogenous human importin alpha 4 (human, UniProt O00505 2-521).
T1 construct: mature; also called Imp α4
T1 sequence (looked up): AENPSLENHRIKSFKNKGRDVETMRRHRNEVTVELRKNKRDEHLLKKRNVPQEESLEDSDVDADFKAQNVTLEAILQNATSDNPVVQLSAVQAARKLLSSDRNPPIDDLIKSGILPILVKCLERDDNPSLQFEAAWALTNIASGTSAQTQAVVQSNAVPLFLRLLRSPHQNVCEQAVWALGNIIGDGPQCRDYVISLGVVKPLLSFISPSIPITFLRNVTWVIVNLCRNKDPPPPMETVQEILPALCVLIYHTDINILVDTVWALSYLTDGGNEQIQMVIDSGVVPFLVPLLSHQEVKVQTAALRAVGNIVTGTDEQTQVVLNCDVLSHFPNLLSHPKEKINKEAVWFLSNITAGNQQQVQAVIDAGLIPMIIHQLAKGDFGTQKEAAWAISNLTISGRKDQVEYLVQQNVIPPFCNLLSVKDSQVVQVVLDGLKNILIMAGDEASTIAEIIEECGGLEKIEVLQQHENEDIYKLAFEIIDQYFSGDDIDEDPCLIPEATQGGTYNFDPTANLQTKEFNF
Kind of experiment: competition pull-down, 1.5 mg/mL Jurkat T cell lysate, 300 µM free N50 against biotinylated N50 on SA beads, quantitative immunoblot.

For experiment [5], the target named is Endogenous human importin alpha 1 (human) (UniProt P52292). The experiment is described as above.
Experiment [6] addresses T2, Endogenous human importin alpha 5 (human, UniProt P52294 1-529 at identity 1.00)).
T2 construct: Endogenous protein in whole cell lysates, and in Hep-G2 cells for the functional rows; also called Imp α5; KPNA1
Kind of experiment: competition pull-down at 1.5 mg/mL Jurkat T lysate protein, biotinylated N50 on streptavidin beads as competitor, quantitative immunoblot. (In general: Immunoblotting shows a protein as a band on a membrane.)

Experiment [7] addresses T3, Endogenous human importin alpha 7 (human, UniProt O60684 1-536).
T3 construct: mature; also called Imp α7
As to the kind of experiment: pull-down with biotinylated peptide and SA beads from whole cell lysate, immunoblot.

Experiment [8] has as its target T4, Endogenous human importin beta 1 (human, UniProt Q14974 1-876).
T4 construct: mature; Endogenous protein in whole cell lysates, and in Hep-G2 cells for the functional rows; also called Imp β1; KPNB1
The experiment is described as above.

Experiment [9] concerns the target T5, GAPDH (Homo sapiens, UniProt P04406).
T5 construct: endogenous, as present in the lysate; also called cellular protein GAPDH
As to the kind of experiment: pull-down: biotinylated peptide in Jurkat T whole cell lysate, streptavidin-coated beads, immunoblot [A].

Experiment [10] deals with T5, GAPDH. Kind of experiment: pull-down: biotinylated peptide in Jurkat T whole cell lysate, streptavidin-coated beads, immunoblot.
Experiment [11] addresses T4, Endogenous human importin beta 1. The description is as above.
Experiment [12] concerns the target T3, Endogenous human importin alpha 7. The description is as above.
The target of experiment [13] is T6, Endogenous human importin alpha 3 (human, UniProt O00629 2-521).
T6 construct: mature; also called Imp α3
T6 sequence (looked up): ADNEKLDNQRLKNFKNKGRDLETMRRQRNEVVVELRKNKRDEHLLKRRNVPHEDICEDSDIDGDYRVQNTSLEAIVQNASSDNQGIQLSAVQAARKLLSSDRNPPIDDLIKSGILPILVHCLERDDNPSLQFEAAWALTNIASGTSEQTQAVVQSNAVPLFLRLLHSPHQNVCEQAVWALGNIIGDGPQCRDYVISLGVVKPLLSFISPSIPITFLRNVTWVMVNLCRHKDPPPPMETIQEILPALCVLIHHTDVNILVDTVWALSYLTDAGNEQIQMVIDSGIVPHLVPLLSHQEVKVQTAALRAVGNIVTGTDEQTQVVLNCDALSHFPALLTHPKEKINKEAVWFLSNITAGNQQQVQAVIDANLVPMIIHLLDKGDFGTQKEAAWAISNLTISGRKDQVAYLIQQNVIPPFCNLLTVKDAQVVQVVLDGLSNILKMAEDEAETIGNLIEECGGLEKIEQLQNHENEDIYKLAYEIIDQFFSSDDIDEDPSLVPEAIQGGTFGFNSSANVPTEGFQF
The description is as above.

The target of experiment [14] is T6, Endogenous human importin alpha 3. Kind of experiment: pull-down with biotinylated AR1 and SA beads from Jurkat T cell lysate, immunoblot.
The target of experiment [15] is T3, Endogenous human importin alpha 7. Described as above.
Experiment [16] deals with T2, Endogenous human importin alpha 5. Described as above.
Experiment [17] deals with T1, Endogenous human importin alpha 4. Described as above.

Positions of bridges follow the written chain, without caps; N, C: chain ends. No end group written: not given here. *: point of attachment. Biotin = O=C1N[C@H]2[C@H](CS[C@H]2CCCCC(=O)*)N1

Chain of GST-tagged Imp α5 ΔIBB (human) (P52294 101-529, stated change not applied): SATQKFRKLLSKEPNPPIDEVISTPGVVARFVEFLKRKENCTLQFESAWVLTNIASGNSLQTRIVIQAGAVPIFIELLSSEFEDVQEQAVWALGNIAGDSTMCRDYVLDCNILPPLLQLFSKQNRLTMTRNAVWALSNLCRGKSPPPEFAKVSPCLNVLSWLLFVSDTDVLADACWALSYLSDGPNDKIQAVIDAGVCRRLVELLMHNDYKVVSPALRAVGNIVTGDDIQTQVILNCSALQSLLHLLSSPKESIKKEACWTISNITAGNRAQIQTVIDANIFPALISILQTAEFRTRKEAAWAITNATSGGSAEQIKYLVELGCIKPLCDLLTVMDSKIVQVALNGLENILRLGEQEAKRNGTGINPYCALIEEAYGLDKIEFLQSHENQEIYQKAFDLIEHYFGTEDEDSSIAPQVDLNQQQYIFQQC
T4 sequence (Q14974 whole entry): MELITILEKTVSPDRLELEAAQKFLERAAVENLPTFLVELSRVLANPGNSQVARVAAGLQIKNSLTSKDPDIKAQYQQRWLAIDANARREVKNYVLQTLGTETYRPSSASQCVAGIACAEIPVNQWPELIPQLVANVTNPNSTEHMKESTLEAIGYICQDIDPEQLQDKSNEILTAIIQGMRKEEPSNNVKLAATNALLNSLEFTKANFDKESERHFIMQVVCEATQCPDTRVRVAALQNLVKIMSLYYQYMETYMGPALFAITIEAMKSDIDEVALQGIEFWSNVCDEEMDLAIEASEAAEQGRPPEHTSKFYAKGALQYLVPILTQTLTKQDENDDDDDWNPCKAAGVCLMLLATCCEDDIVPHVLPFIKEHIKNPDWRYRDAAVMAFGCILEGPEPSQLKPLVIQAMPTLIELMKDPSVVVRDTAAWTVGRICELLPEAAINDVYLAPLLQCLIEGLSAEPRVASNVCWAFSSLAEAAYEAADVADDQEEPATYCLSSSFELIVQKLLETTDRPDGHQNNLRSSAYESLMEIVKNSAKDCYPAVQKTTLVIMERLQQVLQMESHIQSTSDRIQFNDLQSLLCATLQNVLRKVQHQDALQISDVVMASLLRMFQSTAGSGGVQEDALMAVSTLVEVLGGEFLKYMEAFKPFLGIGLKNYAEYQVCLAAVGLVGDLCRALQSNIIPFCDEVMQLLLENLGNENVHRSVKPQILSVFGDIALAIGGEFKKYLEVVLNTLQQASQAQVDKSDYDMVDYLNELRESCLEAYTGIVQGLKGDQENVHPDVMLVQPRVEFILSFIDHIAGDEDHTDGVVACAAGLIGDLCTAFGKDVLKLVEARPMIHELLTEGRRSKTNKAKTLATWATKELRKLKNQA
T5 sequence (P04406 2-335 limits assumed): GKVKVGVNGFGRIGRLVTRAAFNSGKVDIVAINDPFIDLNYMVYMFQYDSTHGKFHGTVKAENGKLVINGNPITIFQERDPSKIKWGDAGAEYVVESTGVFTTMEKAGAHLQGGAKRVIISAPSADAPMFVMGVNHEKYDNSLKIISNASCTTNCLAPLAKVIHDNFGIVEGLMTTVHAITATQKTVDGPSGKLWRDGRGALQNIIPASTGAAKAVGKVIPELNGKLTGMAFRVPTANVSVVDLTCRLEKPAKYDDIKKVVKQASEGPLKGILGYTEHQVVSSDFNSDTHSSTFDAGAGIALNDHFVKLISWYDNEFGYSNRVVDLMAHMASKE
T2 sequence (P52294 1-529 S73N): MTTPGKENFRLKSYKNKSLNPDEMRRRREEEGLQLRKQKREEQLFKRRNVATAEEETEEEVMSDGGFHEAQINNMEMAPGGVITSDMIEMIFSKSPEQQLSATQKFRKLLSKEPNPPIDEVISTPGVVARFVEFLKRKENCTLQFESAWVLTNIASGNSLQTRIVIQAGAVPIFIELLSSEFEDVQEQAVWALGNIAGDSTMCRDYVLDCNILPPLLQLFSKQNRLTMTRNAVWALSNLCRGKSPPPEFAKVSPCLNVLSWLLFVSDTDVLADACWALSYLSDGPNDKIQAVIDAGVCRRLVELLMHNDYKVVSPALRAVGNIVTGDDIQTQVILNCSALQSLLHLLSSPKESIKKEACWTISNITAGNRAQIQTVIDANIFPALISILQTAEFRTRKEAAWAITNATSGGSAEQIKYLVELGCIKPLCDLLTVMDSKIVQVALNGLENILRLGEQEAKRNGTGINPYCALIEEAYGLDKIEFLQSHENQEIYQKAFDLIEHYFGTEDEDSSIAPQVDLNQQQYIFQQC

As for Biotinylated N50 peptide, the Kd (as a rule, the free concentration of one partner at which half of the binding sites on the other are occupied at equilibrium, for simple one-to-one binding) in experiment [1] worked out at 73 nM; in [2], 140 nM. In experiment [3], this molecule gave a fold maximum response against Imp α1 greater than 20 fold.

B1: Unlabeled N50 peptide (peptide)
peptide: VQRKRQKLMP
notes: also called free N50; non-biotinylated N50 peptide
As for B1, the percent reduction of band intensity in experiment [4] and in experiment [5] was 20% each time. Moreover, in experiment [6], the “IC50 (read off the curve)” value is roughly 10000 nM.
Biotin-GGGGGCVQRKRQKLMPC (disulfide 6-17 (inferred), also called cyclized N50) [Biotinylated cN50.1 peptide]: the binding result in experiment [7], in [8] and in experiment [9] was “no binding” each time.
Regarding IQLRKQKREQQLFKRRNVELI (also: biotinylated (position and linker not given here)) [Biotinylated AR7 peptide (auto-inhibitory region of Imp α7)], the binding result in experiment [10] and in [11] was “no binding” throughout.
With VELRKNKRDEHLLKRRNVPHE (also: biotinylated (position and linker not given here)) [Biotinylated AR3 peptide (auto-inhibitory region of Imp α3)], the binding result in experiment [12], in [10] and in [11] was “no binding” throughout.
For the molecule VELRKNKRDEHLLKKRNVPQE (also: biotinylated (position and linker not given here)) [Biotinylated AR4 peptide (auto-inhibitory region of Imp α4)], the binding result in experiment [12], in experiment [10] and in experiment [11] was “no binding” throughout.
LQLRKQKREEQLFKRRNVATA (also: biotinylated (position and linker not given here)) [Biotinylated AR5 peptide (auto-inhibitory region of Imp α5)]: the binding result in experiment [13], in experiment [12], in experiment [10] and in experiment [11] was “no binding” each time.
For the molecule VELRKAKKDDQMLKRRNVSSF (also: biotinylated (position and linker not given here)) [Biotinylated AR1 peptide (auto-inhibitory region of Imp α1)], the binding result in [14], in experiment [15], in experiment [16], in experiment [17], in experiment [10] and in [11] was “no binding” throughout.

The values above are taken from patent US20170100454A1 (VANDERBILT UNIVERSITY, published 2017).
